Reference: article PMC4868133

Molecular target: MUC2 VWD3 domain alone, produced as a shorter recombinant protein without the VWD1D2 domains (human)

## MUC2 VWD3 domain alone, produced as a shorter recombinant protein without the VWD1D2 domains (domain or fragment)
  stoichiometry N: 3
